# Paper PMC3056158
# B1: Immunity factor for SPN (IFS), full length, residues 1-161 (natural protein)
# chain: MYKVPKGLEHYQKMFQKEVTVNDLKKYLIGSDKEYRITRRDSYMGDISDPEVILEYGVYPAFIKGYTQLKANIEEALLEMSNSGQALDIYQAVQTLNAENMLLNYYESLPFYLNRQSILANITKALKDAHIREAMAHYKLGEFAHYQDTMLDMVERTIETF
# modifications: selenomethionine in place of methionine in the derivative used for MAD phasing
# Target: SPNct, C-terminal glycohydrolase domain of Streptococcus pyogenes beta-NAD+ glycohydrolase (SPN), residues 191-451 (Streptococcus pyogenes)
# Experiment: crystal structure
binder,measurement,value
B1,stoichiometry N,1
